{"source": "patent US20080260812A1", "about": "(TAKAMI MATSUYAMA C O KAGOSHIMA UNIVERSITY, published 2008)", "key": {"[1]": {"target": "T1, folate receptor beta (FR-β) (human, UniProt P14207 17-230)", "T1 construct": "whole, on cells; also called FR-β antigen; human FR-β antigen", "T1 sequence (P14207 17-230)": "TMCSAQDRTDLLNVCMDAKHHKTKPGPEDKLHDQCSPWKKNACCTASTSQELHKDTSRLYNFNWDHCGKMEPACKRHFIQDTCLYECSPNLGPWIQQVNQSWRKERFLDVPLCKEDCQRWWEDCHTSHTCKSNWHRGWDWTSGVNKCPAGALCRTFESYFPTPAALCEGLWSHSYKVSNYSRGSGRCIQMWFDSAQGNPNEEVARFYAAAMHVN", "assay": "flow cytometry on FR-β gene-transfected B300-19 cells", "procedure": "Using a mixture of 20 μl of lipofectamine (Gibco BRL), 1 μg of the purified pEF vector insert, and 1 ml of a Hank's balanced salt solution, the FR-β gene was transfected into B300-19 cells which were previously prepared at 1×10⁵ in 24 wells. […] Namely, 5×10⁵ B3001-9 cells were reacted with 0.1 ml of the FR-β antibody (1 mg/ml) at 4° C. for 30 minutes. The cells were washed 3 times with PBS containing 0.1% NaN₃ and 10% fetal calf serum, after which they were reacted with a fluorescence-labeled goat anti-mouse Ig antibody (BIOSOURCE) at 4° C. for 30 minutes. Then, the cells were washed twice with PBS containing 0.1% NaN₃ and 1% fetal calf serum, after which fluorescence of the cells was assayed using EPICS Elite (Coulter)."}, "[2]": {"target": "T2, folate receptor alpha (FR-α) (UniProt P15328 25-234, limits assumed)", "T2 construct": "whole, on cells", "T2 sequence (P15328 25-234 limits assumed)": "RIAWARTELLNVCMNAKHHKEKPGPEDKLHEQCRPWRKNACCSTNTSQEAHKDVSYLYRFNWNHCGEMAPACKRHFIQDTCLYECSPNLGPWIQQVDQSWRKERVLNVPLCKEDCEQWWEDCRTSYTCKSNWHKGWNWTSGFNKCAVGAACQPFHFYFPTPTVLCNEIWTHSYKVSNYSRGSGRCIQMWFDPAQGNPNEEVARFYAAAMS", "assay": "flow cytometry on KB cells, fluorescence-labeled anti-mouse Ig"}}, "data": [{"binder": "IgG-type FR-β monoclonal antibody clone 94b (antibody, V domains shown) VH: EVQLQQSGAELVKPGASVRLSCTASGFNIKDTYMYWVKQRPEQGLEWIGRLDPANGNTRYDPKFQGKATITSDTSSNTAYLQLSSLTSEDTAVYYCAGDYPIIDYWGQGTTLTVSS VL: DIVMSQSPSSLAVSAGEKVTMSCKSSQSLLNSRTRKTYLAWYQQKPGQSPKLLIYWASTRESGVPDRFTGSGSGTEFTLTISSVQAEDLAVYYCKQSYNLWTFGGGTKLEIKR", "values": [{"measurement": "binding result", "setting": "[1]", "result": "binds"}, {"measurement": "binding result", "setting": "[2]", "result": "no binding"}]}, {"binder": "IgG-type FR-β monoclonal antibody clone 36 (antibody, V domains shown, also called clone 36 antibody; IgG monoclonal antibody against a human FR-β antigen (clone 36)) VH: QVQLQQSGAELMKPGASLKISCKATGYTFSSYWIEWVKQRPGHGLQWIGEILPGSGSSNYNEKFKGKATFTADTSSNTAYMQLSSLTSEDSAVYYCARRGSSGSYFAMDYWGQGTSVTVSS VL: DIQMTQSSSSFSVSLGDRVTITCKASEDIYNRLAWYQQKPGNAPRLLISGATSLETGVPLRFSGSGSGKDYTLSITSLQTEDIATYYCQQYWSTPWTFGGGTKLEIK", "values": [{"measurement": "binding result", "setting": "[2]", "result": "no binding"}]}]}
